# According to paper PMC3894171, “Defining NELF-E RNA Binding in HIV-1 and Promoter-Proximal Pause Regions”:
# Assays:
# [1] = target: T1, dNELF-E(mut) (Drosophila, UniProt P92204 1-280, N173E;K174D;V175M;E177P;D178T;F179L); experiment: fluorescence polarization; 10 mM HEPES-NaOH pH 7.5, 100 mM NaCl, 25 mM KCl, 1 mM MgCl2, 0.02% Tween-20, 0.01% IGEPAL CA-630, 10 µg/ml yeast tRNA; 2 nM RNA, 0-2000 nM protein, 1-2 h, binding temperature not stated; gel 5% acrylamide 0.5X TBE at 4 °C; conditions: protein: recombinant, tags: N-terminal His6 (pHIS-parallel1), label: 3' fluorescein (5-thiosemicarbazide)
# T1 sequence: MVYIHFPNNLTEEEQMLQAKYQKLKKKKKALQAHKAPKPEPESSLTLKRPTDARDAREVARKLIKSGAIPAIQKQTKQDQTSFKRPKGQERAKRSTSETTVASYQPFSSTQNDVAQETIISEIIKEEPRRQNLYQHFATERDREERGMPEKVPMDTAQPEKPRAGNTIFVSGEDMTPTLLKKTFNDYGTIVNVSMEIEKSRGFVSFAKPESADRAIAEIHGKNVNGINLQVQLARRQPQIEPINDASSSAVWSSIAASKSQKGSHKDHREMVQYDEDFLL
# [2] = target: T2, hNELF-E(mut) (human, UniProt P18615 1-380, E269N;D270K;M271V;P273E;T274D;L275F); experiment: as above; conditions: protein: recombinant; tags: N-terminal His6 (pHIS-parallel1); label: 3' fluorescein (5-thiosemicarbazide); hairpin with UCU bulge
# [3] = target: T1, dNELF-E(mut); experiment: F-EMSA; 10 mM HEPES-NaOH pH 7.5, 100 mM NaCl, 25 mM KCl, 1 mM MgCl2, 0.02% Tween-20, 0.01% IGEPAL CA-630, 10 µg/ml yeast tRNA; 2 nM RNA, 0-2000 nM protein, 1-2 h, binding temperature not stated; gel 5% acrylamide 0.5X TBE at 4 °C; conditions: protein: recombinant, tags: N-terminal His6 (pHIS-parallel1), label: 3' fluorescein (5-thiosemicarbazide)
# [4] = target: T2, hNELF-E(mut); experiment: as above; conditions: protein: recombinant; tags: N-terminal His6 (pHIS-parallel1); label: 3' fluorescein (5-thiosemicarbazide); hairpin with UCU bulge
# T2 sequence (P18615 whole entry E269N/D270K/M271V/P273E/T274D/L275F): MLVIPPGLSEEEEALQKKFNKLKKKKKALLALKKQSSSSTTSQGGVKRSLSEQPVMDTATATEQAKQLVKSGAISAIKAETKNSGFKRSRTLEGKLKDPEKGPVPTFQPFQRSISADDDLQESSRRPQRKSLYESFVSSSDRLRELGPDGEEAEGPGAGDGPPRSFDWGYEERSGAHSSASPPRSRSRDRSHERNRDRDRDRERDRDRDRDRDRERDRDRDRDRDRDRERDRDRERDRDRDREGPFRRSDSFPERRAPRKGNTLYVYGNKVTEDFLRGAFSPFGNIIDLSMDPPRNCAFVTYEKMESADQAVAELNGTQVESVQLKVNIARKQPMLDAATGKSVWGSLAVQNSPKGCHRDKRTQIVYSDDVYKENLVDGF
Binder,Kd ([1]; hairpin with UCU bulge) [nM],Kd [2] [nM],Kd ([3]; hairpin with UCU bulge) [nM],Kd [4] [nM],Kd ([1]; putative K-turn stem-loop) [nM],Kd ([3]; putative K-turn stem-loop) [nM]
HIV-1 TAR (structured_RNA) RNA: GGUCUCUCUGGUUAGACCAGAUCUGAGCCUGGGAGCUCUCUGGCUAACUAGGGAACC,130 ± 10,153 ± 7,270 ± 10,258 ± 17,,
HIV-1 TAR+A (structured_RNA) RNA: GGUCUCUCUGGUUAGACCAGAUCUGAGCCUGAGGAGCUCUCUGGCUAACUAGGGAACC,120 ± 10,170 ± 5,280 ± 30,233 ± 40,,
GGCCCCACUGAGGAUGCCCACGGGCGAUUGGGGCCA (structured_RNA) [Napt1min],,,,,95 ± 6,350 ± 50
